For one assay, the system named is HUVECs. The experiment in a line: HUVEC cell-binding assay with fluorescence-labeled molecules (in vitro). It is filed as cell-based, human. The conditions noted are these: for degree of binding to HUVECs: FIG. 10, compared with PC-Gla; for in vitro binding to endothelial cells compared with PC-Gla: HUVEC, FIG. 12A. As for the experimental part: PC-Gla, TFG, and TFMG were labeled with FNG-456 NHS ester for in vitro assays or FNI-675 NHS ester for in vivo assays at a molar ratio of 1:3. Briefly, each molecule (10 μM) was dissolved in PBS (1.5 mL), and FNG-456 NHS ester (30 μM) or FNI-675 NHS ester (30 μM) was dissolved in DMSO (0.2 mL). Each molecule and fluorescent dye was reacted at room temperature for 3 h. The reaction product was passed through a 0.2-μm filtering unit, and the unreacted dye was separated on a PD midiTrap™ G-25 (GE Healthcare, UK) that had been pre-equilibrated in PBS with 2 mM sodium azide. This process yielded more than 2.17 μM of each nanoparticle with more than 1.5 ratio of dye per protein.
A direct cell-binding assay was performed on HUVECs and in vivo using fluorescence labeled-PC-Gla, TFG, and TFMG. The assay was performed with PC-Gla, TFG, or TFMG treated on HUVECs, intravenously injected mice, and isolated mouse endothelial cells. The fluorescence value of the HUVECs or endothelial cells were measured with tightly bound PC-Gla, TFG, and TFMG, respectively. The concentrations of PC-Gla, TFG, and TFMG were measured by using the nanoparticle ratio of fluorescent dye per protein.

A further assay concerns the target T1, EPCR (Mus musculus, UniProt Q64695).
T1 construct: from tissue; host or cells: mouse vena cava
T1 sequence (Q64695 18-242): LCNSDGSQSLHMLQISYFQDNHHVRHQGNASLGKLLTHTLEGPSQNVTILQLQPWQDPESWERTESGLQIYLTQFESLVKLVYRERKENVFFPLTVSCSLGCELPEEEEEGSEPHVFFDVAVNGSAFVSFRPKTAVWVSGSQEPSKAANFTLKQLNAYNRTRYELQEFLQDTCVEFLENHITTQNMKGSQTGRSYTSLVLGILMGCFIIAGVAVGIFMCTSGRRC
The experiment in a line: histological analysis of EPCR binding in vivo (mouse vena cava). The conditions noted are these: injected intravenously, FIG. 11. As for the experimental part:
Twenty-four hours prior to CLP surgery, fluorescence labeled-PC-Gla, TFG, and TFMG (200 nM/mouse) was intravenously injected into the mice, respectively. After 24 h, mouse vena cava was enucleated and fixed in visikol for 24 h. Subsequently, vena cava was embedded in optimum cutting temperature (OCT) compound (Tissue Tek) at −80° C. Consecutive sections were incubated with anti-EPCR antibody (Santa Cruz, Calif.), anti-rabbit Alexa 488 (green), anti-CD31 antibody, and anti-rabbit Alexa 350 (blue), and observed by confocal microscopy at 63× magnification (TCS-SP5, Leica microsystem, Germany).

In a further assay the test system is PAR-1. The assay is described as follows: PAR-1 cleavage assay in transfected HUVECs (ALP activity). As to conditions: FIG. 13. It is filed as cell-based. As for the experimental part: HUVECs at 90% confluence in 24-well plates were transiently transfected with pRc/RSV containing ALP-PAR-1-TF cDNA in antibiotic-free Opti-MEM medium using Lipofectamine (Invitrogen) according to the manufacturer's instruction. On the following day, cells were washed and incubated in serum-free medium for 5 h. Cells were then incubated for an additional hour with thrombin, TRAP, TFG, or TFMG. Conditioned medium was collected and centrifuged to remove cellular debris. Supernatant was collected, and ALP (alkaline phosphatase) activity was measured using EnzoLyte™ p-nitrophenyl phosphate alkaline phosphatase assay kit (AnaSpec, San Jose, Calif.) according to the manufacturer's instructions.

Another assay relates to IL-6, IL-10, TNF-α. The experiment in a line: blood inflammatory cytokines (ELISA) in CLP-induced sepsis. It is filed as in vivo, mouse. As to conditions: for level of IL-6 / level of IL-10: FIG. 18A; for level of TNF-α: FIG. 18B. As for the experimental part:
To induce inflammation, male mice were anesthetized with 2% isoflurane (JW Pharmaceutical, Republic of Korea) in oxygen delivered via a small rodent gas anesthesia machine (RC2, Vetequip, Pleasanton, Calif.), first in a breathing chamber and then via a facemask. They were allowed to breathe spontaneously during this procedure. The CLP-induced inflammation model was prepared as previously described. In brief, a 2-cm midline incision was made to expose the cecum and adjoining intestine. The cecum was then tightly ligated with a 3.0-silk suture at 5.0 mm from the cecal tip and punctured once using a 22-gauge needle for the induction of high grade inflammation. It was then squeezed gently to extrude a small amount of feces from the perforation site and returned to the peritoneal cavity. The laparotomy site was then sutured with 4.0-silk. In sham control animals, the cecum was exposed but not ligated or punctured and then returned to the abdominal cavity. This protocol was approved by the Animal Care Committee at Kyungpook National University prior to the conduct of the study (IRP No, KNU 2012-13).
Fresh serum was used for assaying aspartate transaminase (AST), alanine transaminase (ALT), blood urea nitrogen (BUN), creatinine, and LDH using biochemical kits (Mybiosource). To determine the concentrations of IL-6, IL-10, and TNF-α, commercially available ELISA kits were used according to the manufacturer's protocol (R&D Systems). Values were measured using an ELISA plate reader (Tecan, Austria GmbH, Austria).
A general note: An ELISA detects its analyte on a solid surface through an enzyme-linked reagent.

Assay [1] concerns LPS-stimulated HUVEC cells. The assay is described as follows: in vitro permeability assay (Evans blue-bound albumin flux). It is filed as cell-based, human. The conditions noted are these: HUVECs, LPS 100 ng/mL 4 h, up to 100 nM, FIG. 19. As for the experimental part:
For spectrophotometric quantification of endothelial cell permeabilities in response to increasing concentrations of each molecule, the flux of Evans blue-bound albumin across functional cell monolayers was measured using a modified 2-compartment chamber model, as previously described. HUVECs were plated (5×10^4/well) in 12-mm diameter Transwells with a pore size of 3 μm for 3 days. Confluent monolayers of HUVECs were exposed to LPS (100 ng/mL) for 4 h before being subjected to PC-Gla with TRAP, TFG, or TFMG (up to 100 nM). Transwell inserts were then washed with TBS (pH 7.4), followed by the addition of Evans blue (0.5 mL; 0.67 mg/mL) diluted in a growth medium containing 4% BSA. Fresh growth medium was then added to the lower chamber, and the medium in the upper chamber was replaced with Evans blue/BSA. Ten minutes later, the optical density of the sample in the lower chamber was measured at 650 nm.

B1: TFMG: as TFG with an MMP-2 cleavable linker (GPLGLAG) between ferritin fragment C-terminus and PC-Gla (apparently SEQ ID NO: 15) (protein)
chain: MGGTTFLLRNASGHMSSQIRQNYSTDVEAAVNSLVNLYLQASYTYLSLGFYFDRDDVALEGVSHFFRELAEEKREGYERLLKMQNQRGGRIFLQDIKKPAEDEWGKTPDAMKAAMALEKKLNQALLDLHALGSARTDPHLCDFLETHFLDEEVKLIKKMGDHLTNLHRLGGGSEFVDGGGSGTSGPLGLAGANSFLEELRHSSLERECIEEICDFEEAKEIFQNVDDTLAFWSKHVLEHHHHHH
modifications: Fusion polypeptide (2)
Take B1: in the assay with HUVECs, the “degree of binding to HUVECs” value is on record as “strong binding affinities which are equivalent to that of PC-Gla”; the “in vitro binding to endothelial cells compared with PC-Gla” value is “bound more strongly to, and stayed longer on, endothelial cells than PC-Gla did”. In addition, the “in vivo binding by immunohistochemistry” value in the assay with EPCR was “colocalized with EPCR and CD31”. Further, the “PAR-1 cleavage activity (ability to activate PAR-1)” value in the assay on PAR-1 is listed as “strong similarities”. Further, in the assay on IL-6, IL-10, TNF-α, the “level of IL-6” value is “mitigated”, the “level of IL-10” value is reported as “mitigated” and the “level of TNF-α” value was “mitigated”. Moreover, in assay [1], the “in vitro endothelial cell permeability” value is “alleviated”.

B2: TFG: fusion polypeptide: TRAP at N-terminus and PC-Gla at C-terminus of short ferritin monomer fragment, forms nanocage (apparently SEQ ID NO: 14) (protein)
chain: MGGTTFLLRNASGHMSSQIRQNYSTDVEAAVNSLVNLYLQASYTYLSLGFYFDRDDVALEGVSHFFRELAEEKREGYERLLKMQNQRGGRIFLQDIKKPAEDEWGKTPDAMKAAMALEKKLNQALLDLHALGSARTDPHLCDFLETHFLDEEVKLIKKMGDHLTNLHRLGGGSEFVDGGGSGTSANSFLEELRHSSLERECIEEICDFEEAKEIFQNVDDTLAFWSKHVLEHHHHHH
modifications: Fusion polypeptide (1)
Regarding B2, in the assay on HUVECs, the “degree of binding to HUVECs” value is listed as “strong binding affinities which are equivalent to that of PC-Gla”; the “in vitro binding to endothelial cells compared with PC-Gla” value was “bound more strongly to, and stayed longer on, endothelial cells than PC-Gla did”. The “in vivo binding by immunohistochemistry” value with EPCR was “colocalized with EPCR and CD31”. The “PAR-1 cleavage activity (ability to activate PAR-1)” value in the assay with PAR-1 is recorded as “strong similarities”. In addition, in the assay with IL-6, IL-10, TNF-α, the “level of IL-6” value is recorded as “mitigated”, the “level of IL-10” value is reported as “mitigated” and the “level of TNF-α” value was “mitigated”. The “in vitro endothelial cell permeability” value in assay [1] is on record as “alleviated”.
